# B1: YB9-258 (antibody, V domains shown)
# VH: EVQLVESGGGLIQPGGSLRLSCAASGLTVSSNYMHWVRQAPGKGLEWVSVLYAGGSAFYADSVKGRFTISRNNSKNTLYLQMNSLRAEDTAIYYCARGLGDYLDSWGQGTLVTVSS
# VL: DIQMTQSPSSVSASVGDRVTITCRASQGIGSWLAWYQQKPGKAPQLLIYAASTLQSGVPPRFSGSGSGTDFTLTITSLQPEDFASYYCQQANSVLALTFGGGTKVEIK
# Target: SARS-CoV-2 wildtype spike antigen of the SPR column (construct not stated) (SARS-CoV-2)
# Assay: SPR
binder,measurement,value
B1,Kd,0.18 nM
